Ends that are not written are not given here.
B1: Mouse receptor for advanced glycation endproduct (RAGE) at the blood-brain barrier (receptor)
chain: GQNITARIGEPLVLSCKGAPKKPPQQLEWKLNTGRTEAWKVLSPQGGPWDSVAQILPNGSLLLPATGIVDEGTFRCRATNRRGKEVKSNYRVRVYQIPGKPEIVDPASELTASVPNKVGTCVSEGSYPAGTLSWHLDGKLLIPDGKETLVKEETRRHPETGLFTLRSELTVIPTQGGTTHPTFSCSFSLGLPRRRPLNTAPIQLRVREPGPPEGIQLLVEPEGGIVAPGGTVTLTCAISAQPPPQVHWIKDGAPLPLAPSPVLLLPEVGHADEGTYSCVATHPSHGPQESPPVSIRVTETGDEGPAEGSVGESGLGTLALALGILGGLGVVALLVGAILWRKRQPRREERKAPESQEDEEERAELNQSEEAEMPENGAGGP
notes: Endogenous RAGE on brain microvessels/endothelium of living mice (brain perfusion model); The mice in the experiments were of other strains; also called receptor for advanced glycosylation end products

Columns and labels:
[1] = target: B1; test: in vivo brain perfusion with 125I-Aβ, capillary-depletion, binding to brain microvessels
Method: (§1) Injection of radioisotopes for transport studies. […] When the effects of different unlabeled molecular reagents were tested, those were injected 5 min prior to tracers injection and than simultaneously with radiolabled ligands. At predetermined times within 10 min mice were sacrificed by decapitation, and brain tissue prepared for radioactivity analysis. TCA and HPLC analysis as we described were used to determine molecular forms of uptake of radiolabeled Aβ by the BBB. Capillary-depletion technique was used to separate micravascular pellet from capillary-depleted brain to quantify in vivo binding to microvessels vs. transport into brain parenchyma, as we reported.

[2] = target: T1, Aβ1-40 human form (synthetic amyloid-beta peptide 1-40) (human, UniProt P05067 672-711, radioiodinated with Na[125I] for the transport and binding studies); test: as above
T1 construct: domain: Aβ1-40; Stock solutions in DMSO to keep it monomeric; Aβ numbering 1-40 counts on the Aβ peptide, not on APP; also called human Aβ1-40; Amyloid β1-40 peptide
Method: as §1

binding result [1]	binding result [2]	Binder
binds	–	DAEFGHDSGFEVRHQKLVFFAEDVGSNKGAIIGLMVGGVV (peptide, UniProt P12023 672-711, looked up, also: radioiodinated with Na[125I], position not given here, domain: Aβ1-40; also called mouse Aβ1-40; murine Aβ1-40) [Aβ1-40 murine form (synthetic amyloid-beta peptide 1-40)]
–	binds	B1
